Measured values as given in patent US20130115678.
Residue numbers refer to the chain shown, from its start.

Columns and labels:
Assay in all cases: cleavage_in_vitro
[1] = system: T1, SbfI-HF K251A (Streptomyces species Bf-61); conditions: NEB4, 37 C, Mg2+; FI NEB1-3: 1000, 120, 8
T1 sequence: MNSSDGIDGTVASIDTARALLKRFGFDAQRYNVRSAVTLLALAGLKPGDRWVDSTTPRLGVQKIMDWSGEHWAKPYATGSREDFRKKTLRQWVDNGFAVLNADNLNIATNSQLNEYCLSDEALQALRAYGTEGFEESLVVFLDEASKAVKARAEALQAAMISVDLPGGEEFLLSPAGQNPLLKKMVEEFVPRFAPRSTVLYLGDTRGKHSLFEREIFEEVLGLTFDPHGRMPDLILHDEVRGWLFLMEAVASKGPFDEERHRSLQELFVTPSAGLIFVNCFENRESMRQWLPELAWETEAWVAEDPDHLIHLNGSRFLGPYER

[2] = molecular target: T2, PstI-HF D91A (Providencia stuartii 164) (UniProt P00640); conditions: NEB4, 37 C, Mg2+; FI NEB1-3: 1000, 4000, 4000
T2 sequence: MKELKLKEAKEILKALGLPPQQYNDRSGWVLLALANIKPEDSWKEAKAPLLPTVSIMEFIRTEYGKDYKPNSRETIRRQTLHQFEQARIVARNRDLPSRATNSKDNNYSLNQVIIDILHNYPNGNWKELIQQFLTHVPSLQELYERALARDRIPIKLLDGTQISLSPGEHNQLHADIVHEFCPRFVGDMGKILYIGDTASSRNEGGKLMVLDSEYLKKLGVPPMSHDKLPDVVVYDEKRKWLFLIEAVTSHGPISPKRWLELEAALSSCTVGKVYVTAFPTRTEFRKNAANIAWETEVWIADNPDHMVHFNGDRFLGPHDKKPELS

[3] = system: T3, BsmBI-HF N185Y/R232A (Bacillus stearothermophilus); conditions: NEB4, 55 C, Mg2+; listed as BsmBI; FI NEB1-3: 2, >=500, >=64
T3 sequence: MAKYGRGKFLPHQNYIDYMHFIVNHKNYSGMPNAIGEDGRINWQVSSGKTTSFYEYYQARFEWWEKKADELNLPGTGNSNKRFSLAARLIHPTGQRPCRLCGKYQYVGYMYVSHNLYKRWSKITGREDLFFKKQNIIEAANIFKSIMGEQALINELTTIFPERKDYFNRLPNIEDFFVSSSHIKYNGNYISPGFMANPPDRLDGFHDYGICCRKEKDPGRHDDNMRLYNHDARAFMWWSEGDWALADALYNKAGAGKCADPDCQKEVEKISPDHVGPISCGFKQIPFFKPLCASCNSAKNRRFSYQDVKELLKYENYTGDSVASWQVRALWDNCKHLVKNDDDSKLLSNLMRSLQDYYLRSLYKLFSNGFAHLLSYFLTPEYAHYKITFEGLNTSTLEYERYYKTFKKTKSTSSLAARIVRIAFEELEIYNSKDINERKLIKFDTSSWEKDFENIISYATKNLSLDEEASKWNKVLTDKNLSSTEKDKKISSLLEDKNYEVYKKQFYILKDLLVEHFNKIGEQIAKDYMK

[4] = system: T4, SphI (Streptomyces phaeochromogenes); conditions: NEB4, 37 C, Mg2+; FI NEB1-3: 64, 32, 64
T4 sequence: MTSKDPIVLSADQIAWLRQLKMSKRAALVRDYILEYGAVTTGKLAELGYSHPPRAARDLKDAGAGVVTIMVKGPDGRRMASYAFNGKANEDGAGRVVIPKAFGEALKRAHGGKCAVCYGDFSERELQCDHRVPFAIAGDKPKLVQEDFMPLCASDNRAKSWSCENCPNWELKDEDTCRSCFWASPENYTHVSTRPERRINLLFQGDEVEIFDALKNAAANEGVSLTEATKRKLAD

[5] = system: T5, SbfI (Streptomyces species Bf-61); conditions: NEB4, 37 C, Mg2+; FI NEB1-3: 32, 8, 8
T5 sequence: T1 sequence with A251K

[6] = molecular target: T6, PstI (Providencia stuartii 164) (UniProt P00640); conditions: NEB4, 37 C, Mg2+; FI NEB1-3: 64, 32, 120
T6 sequence: T2 sequence with A91D

[7] = molecular target: EcoRI (Escherichia coli RY13) (UniProt P00642); conditions: NEB4, 37 C, Mg2+; FI NEB1-3: 250, 4, 250
[8] = system: T7, NcoI-HF A2T/R31A (Nocardia corallina); conditions: NEB4, 37 C, Mg2+; Table 3 prints >=64000; FI NEB1-3: >=4000, >=4000, >=1000
T7 sequence: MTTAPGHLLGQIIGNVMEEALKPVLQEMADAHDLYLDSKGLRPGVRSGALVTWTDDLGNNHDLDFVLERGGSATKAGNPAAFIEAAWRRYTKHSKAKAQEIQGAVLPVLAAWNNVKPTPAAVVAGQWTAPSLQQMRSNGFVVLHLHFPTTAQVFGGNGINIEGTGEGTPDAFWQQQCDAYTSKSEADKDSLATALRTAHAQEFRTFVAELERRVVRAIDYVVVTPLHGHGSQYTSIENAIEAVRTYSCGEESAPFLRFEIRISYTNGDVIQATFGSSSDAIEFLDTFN

In the case of lambda phage DNA, the activity (fidelity index) [1] is reported as 250, the activity (fidelity index) [2] is reported as 4000 and the activity (fidelity index) [3] is reported as over 500. The activity (fidelity index) [4] was 16, the activity (fidelity index) [5] was 8 and the activity (fidelity index) [6] was 8. For the same substance, the activity (fidelity index) [7] was 4 and the activity (fidelity index) [8] was over 16000.
